Measured values published in article PMC8960874 (2022).

Tests used:
[1] = target: T1, SARS-CoV-2 spike receptor binding domain (RBD) protein with a C-terminal hexahistidine tag (SARS-CoV-2, UniProt P0DTC2 319-541); assay: BLI
[2] = target: T1, SARS-CoV-2 spike receptor binding …; assay: BLI; remark: listed apart in the source

Binder | Kd [1] [pM] | koff [2] [s⁻¹]
Clone 6 mAb (human IgG1 with mouse variable regions) (antibody, V domains shown) VH: QVQLQQSAAELARPGASVKMSCKASGYTFTSYTMHWVKQRPGQGLEWIGYINPTSGYTEYNQNFKDKTTLTADKSSSTAYMQLNSLTSEDSAVYYCAREGHRVGPAYWGQGTLVTVSA VL: not shown | 1.89 | 3.65e-07
Clone 2 mAb (human IgG1 with mouse variable regions) (antibody, V domains shown) VH: EVQLQQSGPELVKPGASVKISCKASGYSFTGYSMNWMKQSPEKSLEWIGEINPSTGGTTDNQKFKAKATLTVDKSSSTAYMQLKSLTSEDSAVYYCARSRGDYWGQGTSVTVSS VL: DIVLTQSPASLAVSLGQRATISCRASESVEYYGTSLMQWYQQKPGQPPKVLIYAASNVESGVPARFSGSGSGTDFSLNIHPVEEDDIAMYFCQQSRKVPWTFGGGTKLEIK | 1.58 | 1.49e-07
